This data set can be described thus: label from the status in PepcDB records.

Our source for the protein production values is a protein production outcome set (Wang et al. 2014).

Regarding “MKAKREQILIRTSWISTIGNAILSTSKIIVGLWAGSLAVLGDGIDSATDVIISIVMIFTARIISQPPSKKYVFGYEKAEGIATKILSLVIFYAGVQMLISSIGSIFSEEAKEIPSAIAIYVTIFSIIGKLLLALYQYKQGKKIDSSMLTANAINMRNDVIISSGVLLGLIFTFIFKLPILDSITGLIISLFIIKSSIGIFIDSNVELMDGVKDVNVYNKIFEAVETVPGASNPHRVRSRMIGNLYMITLDIEVNPQITITQAHQIADAVEKSIKSSIDNVYDILVHVEPAGECQTDEKFGIDKGMVN”, the protein production entry is recorded as “failed”.

For the sequence “MKALEGFTILLALVGVIPRIEGCIRVPPGVTAAKSPVDDNYVLSVNGNTQSYVPGQRYNVSLSAFSGLSFISFMLALDLESGDGDGDANALGTWEIADLAETRFSPRCPNLVENTNTNVKTRVDVFWVAPSSPGQGCILLRATVMQHRDVWFMDDGFLTKRMCEEEVDDIDTQPSIVDPCCACDEAKYELTFEGKWSRHTHPKDFPANSWRTRFSDIIGASHTLDYRFWQYGELASEGLREVAEHGSTRTLESELKDQSEHIRTIIKARGIAYPNVTGKTFAVFRVDSNHHLISLVSMVDPSPDWIVGVSGLELCLPNCSWVENKVHNLYPWDAGTDSGPSYMSADQPQVPPDVVRRIKSNFPNDPRSPFYDPTGAQMKPLATLHINRRRLYEKNCESSDSEQVPPECATNSWSRWDECTTKCGPGKQYRIREFKNPALASRHRCNNALREEKNCVGHKCAGFNEETAEGGEPEVAPSPGSSDDPQCGLSDWSEWSSCTVTCGTGEMTRSRHYLNKKAKKKCQKASRARLHETKICEAMECGGDIENEGGAGEPEEEQAGGDGGGSAEKRSIFRNFESYSQHREDYIPPVCGVTPWSDFSPCMGPCGGHGKRQRIRKVWNNNQVYGVTDPNDDGQDPCRHIKLHEEVNCTNPSCDTIVPGFCYDELTDSPCRDNDVANFWYYDHVSDQCAIYWSDRCDTNRNKFKSKEECEETCRLPRHKQELQHDGIPAIDCLVSDWVSHSCNASCGDGFQLRTRRVLRTPKYGGKPCPKHLVRLDRCYQRCDDMYSISGRGFGERRHVVRAPQPEPQDECRYSEWSAWTPCTATCGDNAVRQRTRTLMNTDLSYKCKDRVRMEKCVMMPCQLTSNDDPERW”, the protein production result is listed as “failed”.

For “MKALRAFAIVAASLLLATGAAAQVSLSPPSGPNPFPKPLEPEKPKPRPPAPAKAPATEAKDKAKKPGDKPDAKAAPEGGAATAEDPNVDLVYGAYQRGFYKTAFELAQKRAADNDAKAMTMLGELYANALGVKRDYKKAAEWYSRAADLGDREAMFALAMARMGGRGGPPNREEAAKWLAQAAKLGEPKAAYNLALLYLDGQTFPQDVKRAAELLRMAADAGNPEAQYALATFYKEGTGVTKSIEQSVRLLQAAALAGNVPAQVEYAIALYNGTGTPKNEPAAVALLRKAARANNPIAQNRLAHVLVSGQGAPRDINEAMKWHLIAKTAGKGDLQLDQTLAQMSAEDRAKAEEAARTWIGGGK”, the protein production result was “failed”. Under “MKARQQKYCDKIANFWCHPTGKIIMSLAGKKIVLGVSGGIAAYKTPELVRRLRDRGADVRVAMTEAAKAFITPLSLQAVSGYPVSDSLLDPAAEAAMGHIELGKWADLVILAPATADLIARVAAGMANDLVSTICLATPAPVAVLPAMNQQMYRAAATQHNLEVLASRGLLIWGPDSGSQACGDIGPGRMLDPLTIVDMAVAHFSPVNDLKHLNIMITAGPTREPLDPVRYISNHSSGKMGFAIAAAAARRGANVTLVSGPVSLPTPPFVKRVDVMTALEMEAAVNASVQQQNIFIGCAAVADYRAATVAPEKIKKQATQGDELTIKMVKNPDIVAGVAALKDHRPYVVGFAAETNNVEEYARQKRIRKNLDLICANDVSQPTQGFNSDNNALHLFWQDGDKVLPLERKELLGQLLLDEIVTRYDEKNRR” stands “failed”. Under “MKASCSSFTCQSADGKHFLGRTYDEYGDISANKVSIIPRGYEISLTFMGNKENNKQIVKYAIVGMNVDMFDTPFLTEGMNEHGLMISLLFFPHFTQYNSKSNAEYDVNLGLLLPFVLGKCKNIEEAVALLQKINPVDEPESQMELPCHYLISDKTGESIVVEPLADGLKIYRNEMGVLTNSPTYEWHKINLRNYLGISNLAKETQVVNGYKIEELGEGTGYLGIPGDYTPVSRFVRLAFSKNYMPEPQNEIDAVNKMFNIFETVDVPEGVIYTPPLRTPYHEKTLCTSVMCSESLKYYFSTSTNCRICCVDLNKAMNNNSKELINIDIPFEQDILTLN” stands “failed”. Turning to “MKASELRNYTDEELKNLLEEKKRQLMELRFQLAMGQLKNTSLIKLTKRDIARIKTILRERELGIRR”, the protein production result is listed as “not failed”. For the sequence “MKATTSLATSCRRLLLWGVLTLQCLFSTAQKRFTADVEQQAEKILSQMTLDEKLSYIGGINWMYTRPLERFGIPRLKMSDGPQGLGTHGPSTAYPCALMLAATWNEQLATEYGSALGKDCRARGVHVLLGPAVNIYRAPMCGRNFEYMGEDPYLTSRMATGYIKGVQGQGVMATIKHFIANNSDYDRDHISSDIDERTLNEIYFPSFRAAVQEAEVGAVMSSYNLLNGIYTTEHPWLLKDVLRQQWGFKGILMSDWGSTHHCIPAVKGGLDLEMPAGSKMQPEELKYYLRTGDITIETIDEKVRHILQTLLAFGFRETQQPDTHIPLKNPQCAQTALNVASEGLVLLKNTNQILPIRSGKVKTIAVVGKNAQGYVCGGGSGEVHPFQYVSVLDGIRKEAAERDIRVEYLDVYDYLPTIIFTDTERKQKGFRAQYFDNMNLEGTPKVEQTETKINYSWSGGTGLKEMPKEQFSVRWNGTICPQETDEYLFTLGGDDGYRLYIDGKLIADEWHEGAFRNSTYRCMLEAGKKYDLKIEYFQKGGGAAVNFIWKQKNASNNLFVEALNRNDLVVACIGFNSDTEGEGRDRTFELPEDEAQLLQNTLQSKRPVVGIVNAGGNVEMQSWEPSLKGLLWAWYGGQEAGTAIARTLFGELNPSGKLPITFEKRWEDNPTFHSYYDPDGDKHVEYAEGIFVGYRGYDKLKREVQYPFGYGLSYTRFKLSAPTVGTPKTDGSVTVTCKLTNTGRTAGAEVVQLYVSNKDTTVEHPEKELKGFRKVYLEPGETKSIEITVPAEAFSHYDTGSRRFVIDRGSHDILLGFSSRDIKAKMSVGISR”, the protein production result is given as “failed”. As for “MKAVIMAGGFGTRIQPLTSSIPKPMIPLLNRPIMLHIVELLKKYEITDLVMLLYHQPAVIKNFFRDGTDFGVKITYVTPLQDMGTAGAVKCAEKFLDERFLVISGDLLTDFNLQKIIDSHEDNKALATITLTSVKDPLQFGVVITDKEKRITQFLEKPGWGEVISDTINTGIYVFEPEIFAHIPEEENYDFSQDLFPKLLEQQKPLFGYTAKGYWRDIGNTDSYREAHHDIFKGKVNVKIDEAKQDLVGKDLRLGSDVNLDEHVTLEGTVVVGDNSQVFESAHIKDTVIGRNCTIEPGVRLNRCVIWDNVYVKKGAKLNDGVLCSNVRVGHGVVMEEGVIVADDTSIGEEAYIKRDVKIWPRKVIEAGATVTGNLIWGEKWKKSLFEGAMVKGLTNMELTPEFVAKLGCAYGTMLPKGSHIISGRDSYRSCRMLKRSFIGGLLSAGINVRDLTMVPMPVLRYKLRTFGEVGGIYFRQAIDDPASTEIVFLDGDGLDFSSSMGKNVERIFFKENFRRAHHTEPGALSEIPQQVTDFYREGFLHTIGKSPLQKKQFKVVIDFNHSSASQLLPGILTQMGCEVISLNAYVDEERGIQAVAERQQSLAQLSKIVATLEASAGFWLDPGTEGVIVVDETGKVYEGAELLPLMVGLALRSGEKGLFAVPVSAPSAIERMVQERGSAVTRTKSADRAMIEATLSSEVVLAGTMDGRFAFPKFQSAFDGMFAIAKTIELVAKGGLSISRVAAEIPQRVFLQTRVPCVWDMKGGIMRKMSEDSLDKEASFIDGIKVHFGEDWALVLPDQYLPYVHIVAEARDAKTAQKLLDEYKKKVEGWKRELQ”, the entry is “failed”; as for “MKAVKSERERGSRRRHRDGDVVLPAGVVVKQERLSPEVAPPAHRRPDHSGGSPSPPTSEPARSGHRGNRARGVSRSPPKKKNKASGRRSKSPRSKRNRSPHHSTVKVKQEREDHPRRGREDRQHREPSEQEHRRARNSDRDRHRGHSHQRRTSNERPGSGQGQGRDRDTQNLQAQEEEREFYNARRREHRQRNDVGGGGSESQELVPRPGGNNKEKEVPAKEKPSFELSGALLEDTNTFRGVVIKYSEPPEARIPKKRWRLYPFKNDEVLPVMYIHRQSAYLLGRHRRIADIPIDHPSCSKQHAVFQYRLVEYTRADGTVGRRVKPYIIDLGSGNGTFLNNKRIEPQRYYELKEKDVLKFGFSSREYVLLHESSDTSEIDRKDDEDEEEEEEVSDS”, “failed”. “MKAWVLKRLGGPLELVDLPEPEAEEGEVVLRVEAVGLNFADHLMRLGAYLTRLHPPFIPGMEVVGVVEGRRYAALVPQGGLAERVAVPKGALLPLPEGLSPEEAAAFPVSFLTAYLALKRAQARPGEKVLVQAAAGALGTAAVQVARAMGLRVLAAASRPEKLALPLALGAEEAATYAEVPERAKAWGGLDLVLEVRGKEVEESLGLLAHGGRLVYIGAAEGEVAPIPPLRLMRRNLAVLGFWLTPLLREGALVEEALGFLLPRLGRELRPVVGPVFPFAEAEAAFRALLDRGHTGKVVVRL”: the protein production entry was “not failed”.

As for “MKCHRVNELIELLHPAWQKEPDLNLVQFLQNLAQEAGFEGQLNELTDDILIYHLKMRDSDKEQVIPGLKKDYEEDFKTALLRARGVIKDLEHHHHHH”, the protein production result was “not failed”. Under “MKCKRLNEVIELLQPAWQKEPDFNLLQFLQKLAKESGFDGELADLTDDILIYHLKMRDSAKDAVIPGLQKDYEEDFKTALLRARGVIKELEHHHHHH” stands “not failed”; under “MKCNDKLAPFEVFDHVVNKKLSFRHVTMDDVDMLHSWMHEEHVIPYWKLNIPLVDYKKHLQTFLNDDHQTLMVGAINGVPMSYWESYWVKEDIIANYYPFEEHDQGIHLLIGPQEYLGQGLIYPLLLAIMQQKFQEPDTNTIVAEPDRRNKKMIHVFKKCGFQPVKEVELPDKIGLLMKCEQNVFEKRWSDWKMNKF”, “not failed”; under “MKDVTIYHNPRCSKSRETLALVEQQGITPQVVLYLETPPSVDKLKELLQQLGFSDARQLMRTKEDLYKTLNLDDRGLTQDQLLQAMADNPKLIERPIVVTQGKARIGRPPEQVLEILK”, “not failed”. Under “MKDYQKILVVVDPTTENQVALARAVTLASKSNAHVTVFLSIFDFSYEMTSILSSQEREAMRQGVIDQRVAWIQDLLAPYNHLGLNIDTQVIWHNRPFESIINHAIAGQYDLIVKGTHAHDKLKAVIFTPTDWHLMRKAPVPVLMVKDHDWPETGKILCAVNVATEDTDHQMLNGKIIEHAKDLAGKFAAEVHLVNGFPGTPVNLAIELPDFDAQTYNDTIRLQHEQRVQYLADAYGIDKQNCHVKEGLPEDVIPELAEQLDAELVILGTVGRTGFSAALIGNTAEHVIDSINCDLLAIKPDGYKSPLEEA” stands “not failed”; under “MKEDPRIIKTLSKLQKAFVMLLKTYDAGDINVRQISDEAGVTRGAFYSHFSDKKEFVNFTINELVGSLFNSSLKDSVGFVDEVNHKNAHGTNVLSVSNFFDKVAADYQTYTIVLDTEKLPQFTEVLKERLNSEIKTFAEYYGKKVKHDGFPIEVLSSYYVNGLIGMIRMWLDEGMVYTSHYMANAAKKILGTKIQIDSQNIDLSDFFVDLEHHHHHH”, “not failed”.

For the sequence “MKEDWKSTIQKRIVERNLNQSKKYESIMKSYNSLVEEKNNLLAIIASLTSENMYLLNNRKLNHSFESTMMTETNISRNEDIFLSNETKKGHNNNNNQNDYNNDNSLNYSRTNIITMKSPDSLSQNTITKKEFLEVIKEKGKNEELILLLKNSVNEKEKMLHILNKENNNLNNVICKREEELYEKKKDIFKLEELLNKKETQIKLYENNNKSLKTKIQLHDRKNQKYFRQYNILRFTYFKLLKQVGEMKVYNNNINQNYFSLRKEMLQKKEENEKLLNYLIHCKTSYKKELKKLYQEITNKQKKYILFKNNQFYVNLYLRKF”, the protein production entry is on record as “failed”.
